# Source: US20070167369A1, “Novel use of isolated polypeptide comprising four FAS-1 domains, EM1 domain and RGD motif” (KYUNGPOOK NATIONAL UNIVERSITY INDUSTRY-ACADEMIC COOPERATION …, priority 2004, published 2007)
# B1: fas-1 domain: recombinant protein containing the fourth fas-1 domain of human βig-h3 (SEQ ID NO: 64) (protein, listed as Homo sapiens)
# chain: MGTVMDVLKGDNRFSMLVAAIQSAGLTETLNREGVYTVFAPTNEAFRALPPRERSRLLGDAKELANILKYHIGDEILVSGGIGALVRLKSLQGDKLEVSLKNNVVSVNKEPVAEPDIMATNGVVHVITNVL
# How the values were obtained:
# melanoma cells (B16F10) = test: Apoptosis by annexin V staining/FACS, melanoma cells (Example 7-1); type: cell-based, murine; settings: 48 hours
# Procedure: (§1) Annexin V is a protein binding to calcium-dependent phospholipid, and known to have a strong affinity for phosphatidylserine such that apoptosis can be assayed. For this reason, the present inventors performed a test using an annexin V staining kit (Santa Cruz Biotechnology Inc.).
# (§2) Each of human umbilical vein endothelial cells (HUVECs) and melanoma cells (B16F10) was suspended in medium at a density of 5×10^5 cells/ml, added to each well of […] and incubated at 37° C. overnight. On the next day, the cells were washed one time with PBS buffer, then added with serum-free medium and incubated at 37° C. for 24 hours. 0.2% FBS-containing fresh medium was treated with the fas-1 domain (βig-h3 D-IV) prepared in Example 1, at various concentrations, then added to each well of the plate and incubated at 37° C. for 48 hours. A negative control was added with PBS, a positive control was incubated with TNF-α or Vitamin C, which are known to induce the apoptosis of endothelial cells and melanoma cells. FITC (fluorescein isothiocyanate)-conjugated annexin V antibodies were added and allowed to react at 4° C. for one hour. After completion of the reaction, unbound annexin V antibodies were removed with PBS buffer, and the apoptosis of the cells was analyzed using FACS (BD Biosciences).
# β5/HEK293 cells = test: Apoptosis by annexin V staining, β5/HEK293 cells expressing αvβ5 integrin (Example 8); type: cell-based; settings: annexin V FACS
# Procedure: To identify an integrin that mediates the induction of endothelial cell apoptosis by the fas-1 domain, the present inventors performed a test using HEK293 cells (β3/HEK293 and β5/HEK293) which had been transfected such as to express αvβ3 integrin or αvβ5 integrin.
# Meanwhile, a β5/HEK293 cell that expresses αvβ5 integrin was prepared in the following manner. In order to construct a human β5 integrin expression vector, RT-PCR using human placenta poly(A)^+ RNA as a template was first performed to prepare a 2.8-kb β5 cDNA (Suzuki et al., Proc. Natl. Acad. Sci. USA, 87:5354-5358, 1990). The amplified β5 cDNA was digested with EcoRI, and then cloned into a pcDNA3 vector (Invitrogen). The resulting vector was named “β5/pcDNA3”. Thereafter, 1 μg of the β5/pcDNA3 vector was introduced into HEK293 cells (ATCC, catalog No. CRL 1573) by lipofectamin (Gibco). A stable transfected cell was screened using 1 mg/ml of G418. The cell transfected with the β5/pcDNA3 vector was named “β5/HEK293”.
# pc/HEK293 cells, β3/HEK293 cells and β5/HEK293 cells were stained with annexin V to identify an integrin that mediates the induction of endothelial cell apoptosis by the fas-1 domain. Each of the cells was suspended in medium at a density of 5×10^5 cells/ml, added to each well of 6-well plated and incubated at 37° C. overnight. Following this, a test was performed in the same manner as in Example 7-1 above.
# HUVECs [1] = test: Apoptosis by annexin V staining/FACS, endothelial cells (Example 7-1); type: cell-based, human; settings: 48 hours
# Procedure: as §1, §2
# [2] = tested on: tumors derived from fas-1/B16F10 cells; test: Growth of tumors derived from fas-1-overexpressing melanoma cells (Example 10-2); type: in vivo, mice; settings: fas-1 domain overexpressed in the implanted B16F10 cells
# Procedure: Each of the fas-1-overexpressing melanoma cells (fas-1/B16F10) and the control cells (pLNCX/B16F10) was suspended in medium at a density of 1×10^7 cells/ml. 0.1 ml of each of the cell suspensions was injected subcutaneously to 5-6 week old mice (Hyochang scientific company, Korea) to make a tumor model. Since the diameter of the tumor reached about 3 mm, the body weight and tumor size of the mice were checked at intervals of three days. The longest diameter and the shortest diameter of the tumor were measured with slide calipers, and the measured values were substituted in the following equation (1) to calculate the volume of the tumor. Volume of tumor=a×b^2/2 [Equation 1]
# Wherein, ‘a’ is the shortest diameter of the tumor, and ‘b’ is the longest diameter of the tumor.
# caspase-3 = test: Caspase-3 activity in HUVECs (Example 7-2); type: cell-based, human; settings: control (PBS) at 24 hours about 250 AU
# Procedure: With respect to the induction of endothelial cell apoptosis (active cell death) by the fas-1 domain, which had been confirmed in Example 7-1 above, the present inventors measured the activity of caspase-3, which is activated when apoptosis occurs, in the cells treated with the fas-1 domain.
# HUVECs were spread onto a 100-mm plate (10 ml culture solution) with M199 medium containing 10% FBS, followed by incubation in a 37° C. incubator for 12 hours. After the incubation, the medium was removed from the plate, the cells were added with fresh medium containing 0.1% FBS and further incubated for 24 hours. The cell-containing medium was treated with 5 μM or 20 μM of the fas-1 domain (βig-h3 D-IV) prepared in Example 1. A control was treated with PBS buffer. At 12 hours and 24 hours after the treatment, the cells were harvested. The caspase-3 activity of the cells was measured with an EnzCheck Caspase-3 Assay Kit(#2) (Molecular Probe Co., Eugene, Oreg., USA). Moreover, to verify that measured values are attributed to caspase-3 activity, each of the samples was treated with DEVD-CHO (Molecular Probe Co., Eugene, Oreg., USA) as a caspase-3-specific inhibitor. The control was treated with DMSO.
# HUVECs [3] = test: Adhesion of endothelial cells to fibronectin, vitronectin or collagen (Example 5-1); type: cell-based, human
# Procedure: Flat-bottomed 96-well ELISA (enzyme-linked immunosorbent assay) plates (Costar, Corning Inc., NY) were incubated overnight at 4° C. with 10 μg/ml of fibronectin (Promega Inc., USA), vitronectin (Promega Inc., USA) and collagen, respectively, to coat the well surface. Then, a test was performed in the same manner as in Example 4-1 above.
# HUVECs [4] = test: Endothelial cell proliferation, MTT (Example 6); type: cell-based, human; settings: 48 hours
# Procedure: HUVECs were suspended in medium at a density of 3×10^4 cells/ml, and 0.1 ml of the cell suspension was added to each well of 96-well plate and incubated at 37° C. overnight. The cells were washed with PBS buffer, and then incubated at 37° C. for 24 hours in serum-free medium. Thereafter, 0.2% FBS-containing medium containing the indicated concentrations of the fas-1 domain (βig-h3 D-IV) prepared in Example 1 was added to each well of the plate and incubated at 37° C. for 48 hours. A control was added with 2% BSA instead of the fas-1 domain. 50 μl of 0.5 mg/ml thiazolyl blue (MTT; Sigma) solution was added to each well, and allowed to react at 37° C. for 4 hours. After the reaction, the medium was removed, and each well was added with DMSO and left to stand at room temperature for a few minutes. Thereafter, the absorbance was measured at 570 nm in a Bio-Rad model 550 microplate reader.
molecule,measurement,setting,value
B1,induction of apoptosis of B16F10 cells,melanoma cells (B16F10),did not induce the apoptosis of B16F10 cells
same,induction of apoptosis of β5/HEK293 cells,β5/HEK293 cells,not induced
same,induction of apoptosis of HUVECs,HUVECs [1],induced the apoptosis of HUVECs in a dose-dependent manner
same,growth of tumors derived from melanoma cells,[2],inhibits the in vivo growth of tumors derived from the melanoma cells
same,caspase-3 activity,caspase-3; 5 μM,300 AU
same,caspase-3 activity,caspase-3; 20 μM,600 AU
same,inhibition of adhesion of HUVECs to collagen,HUVECs [3]; plate coated with 10 μg/ml collagen,only partially inhibited
same,inhibition of adhesion of HUVECs to fibronectin,HUVECs [3]; plate coated with 10 μg/ml fibronectin,completely inhibited
same,inhibition of adhesion of HUVECs to vitronectin,HUVECs [3]; plate coated with 10 μg/ml vitronectin,completely inhibited
same,inhibition of proliferation of endothelial cells,HUVECs [4],inhibited by fas-1 domain in a dose-dependent manner
